We go through eight molecules from paper PMC10540216, “Activity Guided Azide-methyllysine Photo-trapping for Substrate Profiling of Lysine Demethylases” (Journal of the American Chemical Society, 2023).

To fix the notation:
B1: CPSF1_HUMAN (protein, UniProt Q10570 1-1443, looked up)
Cleavage and polyadenylation …: MYAVYKQAHPPTGLEFSMYCNFFNNSERNLVVAGTSQLYVYRLNRDAEALTKNDRSTEGKAHREKLELAASFSFFGNVMSMASVQLAGAKRDALLLSFKDAKLSVVEYDPGTHDLKTLSLHYFEEPELRDGFVQNVHTPRVRVDPDGRCAAMLVYGTRLVVLPFRRESLAEEHEGLVGEGQRSSFLPSYIIDVRALDEKLLNIIDLQFLHGYYEPTLLILFEPNQTWPGRVAVRQDTCSIVAISLNITQKVHPVIWSLTSLPFDCTQALAVPKPIGGVVVFAVNSLLYLNQSVPPYGVALNSLTTGTTAFPLRTQEGVRITLDCAQATFISYDKMVISLKGGEIYVLTLITDGMRSVRAFHFDKAAASVLTTSMVTMEPGYLFLGSRLGNSLLLKYTEKLQEPPASAVREAADKEEPPSKKKRVDATAGWSAAGKSVPQDEVDEIEVYGSEAQSGTQLATYSFEVCDSILNIGPCANAAVGEPAFLSEEFQNSPEPDLEIVVCSGHGKNGALSVLQKSIRPQVVTTFELPGCYDMWTVIAPVRKEEEDNPKGEGTEQEPSTTPEADDDGRRHGFLILSREDSTMILQTGQEIMELDTSGFATQGPTVFAGNIGDNRYIVQVSPLGIRLLEGVNQLHFIPVDLGAPIVQCAVADPYVVIMSAEGHVTMFLLKSDSYGGRHHRLALHKPPLHHQSKVITLCLYRDLSGMFTTESRLGGARDELGGRSGPEAEGLGSETSPTVDDEEEMLYGDSGSLFSPSKEEARRSSQPPADRDPAPFRAEPTHWCLLVRENGTMEIYQLPDWRLVFLVKNFPVGQRVLVDSSFGQPTTQGEARREEATRQGELPLVKEVLLVALGSRQSRPYLLVHVDQELLIYEAFPHDSQLGQGNLKVRFKKVPHNINFREKKPKPSKKKAEGGGAEEGAGARGRVARFRYFEDIYGYSGVFICGPSPHWLLVTGRGALRLHPMAIDGPVDSFAPFHNVNCPRGFLYFNRQGELRISVLPAYLSYDAPWPVRKIPLRCTAHYVAYHVESKVYAVATSTNTPCARIPRMTGEEKEFETIERDERYIHPQQEAFSIQLISPVSWEAIPNARIELQEWEHVTCMKTVSLRSEETVSGLKGYVAAGTCLMQGEEVTCRGRILIMDVIEVVPEPGQPLTKNKFKVLYEKEQKGPVTALCHCNGHLVSAIGQKIFLWSLRASELTGMAFIDTQLYIHQMISVKNFILAADVMKSISLLRYQEESKTLSLVSRDAKPLEVYSVDFMVDNAQLGFLVSDRDRNLMVYMYLPEAKESFGGMRLLRRADFHVGAHVNTFWRTPCRGATEGLSKKSVVWENKHITWFATLDGGIGLLLPMQEKTYRRLLMLQNALTTMLPHHAGLNPRAFRMLHVDRRTLQNAVRNVLDGELLNRYLYLSTMERSELAKKIGTTPDIILDDLLETDRVTAHF
B2: THIO_HUMAN (protein, UniProt P10599 2-105, looked up)
Thioredoxin: VKQIESKTAFQEALDAAGDKLVVVDFSATWCGPCKMIKPFFHSLSEKYSNVIFLEVDVDDCQDVASECEVKCMPTFQFFKKGQKVGEFSGANKEKLEATINELV
B3: ADT2_HUMAN (protein, UniProt P05141 1-298, looked up)
ADP/ATP translocase 2: MTDAAVSFAKDFLAGGVAAAISKTAVAPIERVKLLLQVQHASKQITADKQYKGIIDCVVRIPKEQGVLSFWRGNLANVIRYFPTQALNFAFKDKYKQIFLGGVDKRTQFWLYFAGNLASGGAAGATSLCFVYPLDFARTRLAADVGKAGAEREFRGLGDCLVKIYKSDGIKGLYQGFNVSVQGIIIYRAAYFGIYDTAKGMLPDPKNTHIVISWMIAQTVTAVAGLTSYPFDTVRRRMMMQSGRKGTDIMYTGTLDCWRKIARDEGGKAFFKGAWSNVLRGMGGAFVLVLYDEIKKYT
B4: KDM4C_HUMAN (protein, UniProt Q9H3R0 1-1056, looked up)
Lysine-specific demethylase 4C: MEVAEVESPLNPSCKIMTFRPSMEEFREFNKYLAYMESKGAHRAGLAKVIPPKEWKPRQCYDDIDNLLIPAPIQQMVTGQSGLFTQYNIQKKAMTVKEFRQLANSGKYCTPRYLDYEDLERKYWKNLTFVAPIYGADINGSIYDEGVDEWNIARLNTVLDVVEEECGISIEGVNTPYLYFGMWKTTFAWHTEDMDLYSINYLHFGEPKSWYAIPPEHGKRLERLAQGFFPSSSQGCDAFLRHKMTLISPSVLKKYGIPFDKITQEAGEFMITFPYGYHAGFNHGFNCAESTNFATVRWIDYGKVAKLCTCRKDMVKISMDIFVRKFQPDRYQLWKQGKDIYTIDHTKPTPASTPEVKAWLQRRRKVRKASRSFQCARSTSKRPKADEEEEVSDEVDGAEVPNPDSVTDDLKVSEKSEAAVKLRNTEASSEEESSASRMQVEQNLSDHIKLSGNSCLSTSVTEDIKTEDDKAYAYRSVPSISSEADDSIPLSSGYEKPEKSDPSELSWPKSPESCSSVAESNGVLTEGEESDVESHGNGLEPGEIPAVPSGERNSFKVPSIAEGENKTSKSWRHPLSRPPARSPMTLVKQQAPSDEELPEVLSIEEEVEETESWAKPLIHLWQTKSPNFAAEQEYNATVARMKPHCAICTLLMPYHKPDSSNEENDARWETKLDEVVTSEGKTKPLIPEMCFIYSEENIEYSPPNAFLEEDGTSLLISCAKCCVRVHASCYGIPSHEICDGWLCARCKRNAWTAECCLCNLRGGALKQTKNNKWAHVMCAVAVPEVRFTNVPERTQIDVGRIPLQRLKLKCIFCRHRVKRVSGACIQCSYGRCPASFHVTCAHAAGVLMEPDDWPYVVNITCFRHKVNPNVKSKACEKVISVGQTVITKHRNTRYYSCRVMAVTSQTFYEVMFDDGSFSRDTFPEDIVSRDCLKLGPPAEGEVVQVKWPDGKLYGAKYFGSNIAHMYQVEFEDGSQIAMKREDIYTLDEELPKRVKARFSTASDMRFEDTFYGADIIQGERKRQRVLSSRFKNEYVADPVYRTFLKSSFQKKCQKRQ
B5: MPCP_HUMAN (protein, UniProt Q00325 50-362, looked up)
Solute carrier family 25 …: AVEEQYSCDYGSGRFFILCGLGGIISCGTTHTALVPLDLVKCRMQVDPQKYKGIFNGFSVTLKEDGVRGLAKGWAPTFLGYSMQGLCKFGFYEVFKVLYSNMLGEENTYLWRTSLYLAASASAEFFADIALAPMEAAKVRIQTQPGYANTLRDAAPKMYKEEGLKAFYKGVAPLWMRQIPYTMMKFACFERTVEALYKFVVPKPRSECSKPEQLVVTFVAGYIAGVFCAIVSHPADSVVSVLNKEKGSSASLVLKRLGFKGVWKGLFARIIMIGTLTALQWFIYDSVKVYFRLPRPPPPEMPESLKKKLGLTQ
B6: HACD3_HUMAN (protein, UniProt Q9P035 1-362, looked up)
Very-long-chain …: MENQVLTPHVYWAQRHRELYLRVELSDVQNPAISITENVLHFKAQGHGAKGDNVYEFHLEFLDLVKPEPVYKLTQRQVNITVQKKVSQWWERLTKQEKRPLFLAPDFDRWLDESDAEMELRAKEEERLNKLRLESEGSPETLTNLRKGYLFMYNLVQFLGFSWIFVNLTVRFCILGKESFYDTFHTVADMMYFCQMLAVVETINAAIGVTTSPVLPSLIQLLGRNFILFIIFGTMEEMQNKAVVFFVFYLWSAIEIFRYSFYMLTCIDMDWKVLTWLRYTLWIPLYPLGCLAEAVSVIQSIPIFNETGRFSFTLPYPVKIKVRFSFFLQIYLIMIFLGLYINFRHLYKQRRRRYGQKKKKIH
B7: CBPD_HUMAN (protein, UniProt O75976 32-1380, looked up)
Carboxypeptidase D: AHIKKAEATTTTTSAGAEAAEGQFDRYYHEEELESALREAAAAGLPGLARLFSIGRSVEGRPLWVLRLTAGLGSLIPEGDAGPDAAGPDAAGPLLPGRPQVKLVGNMHGDETVSRQVLIYLARELAAGYRRGDPRLVRLLNTTDVYLLPSLNPDGFERAREGDCGFGDGGPSGASGRDNSRGRDLNRSFPDQFSTGEPPALDEVPEVRALIEWIRRNKFVLSGNLHGGSVVASYPFDDSPEHKATGIYSKTSDDEVFKYLAKAYASNHPIMKTGEPHCPGDEDETFKDGITNGAHWYDVEGGMQDYNYVWANCFEITLELSCCKYPPASQLRQEWENNRESLITLIEKVHIGVKGFVKDSITGSGLENATISVAGINHNITTGRFGDFYRLLVPGTYNLTVVLTGYMPLTVTNVVVKEGPATEVDFSLRPTVTSVIPDTTEAVSTASTVAIPNILSGTSSSYQPIQPKDFHHHHFPDMEIFLRRFANEYPNITRLYSLGKSVESRELYVMEISDNPGVHEPGEPEFKYIGNMHGNEVVGRELLLNLIEYLCKNFGTDPEVTDLVHNTRIHLMPSMNPDGYEKSQEGDSISVIGRNNSNNFDLNRNFPDQFVQITDPTQPETIAVMSWMKSYPFVLSANLHGGSLVVNYPFDDDEQGLATYSKSPDDAVFQQIALSYSKENSQMFQGRPCKNMYPNEYFPHGITNGASWYNVPGGMQDWNYLQTNCFEVTIELGCVKYPLEKELPNFWEQNRRSLIQFMKQVHQGVRGFVLDATDGRGILNATISVAEINHPVTTYKTGDYWRLLVPGTYKITASARGYNPVTKNVTVKSEGAIQVNFTLVRSSTDSNNESKKGKGASSSTNDASDPTTKEFETLIKDLSAENGLESLMLRSSSNLALALYRYHSYKDLSEFLRGLVMNYPHITNLTNLGQSTEYRHIWSLEISNKPNVSEPEEPKIRFVAGIHGNAPVGTELLLALAEFLCLNYKKNPAVTQLVDRTRIVIVPSLNPDGRERAQEKDCTSKIGQTNARGKDLDTDFTNNASQPETKAIIENLIQKQDFSLSVALDGGSMLVTYPYDKPVQTVENKETLKHLASLYANNHPSMHMGQPSCPNKSDENIPGGVMRGAEWHSHLGSMKDYSVTYGHCPEITVYTSCCYFPSAARLPSLWADNKRSLLSMLVEVHKGVHGFVKDKTGKPISKAVIVLNEGIKVQTKEGGYFHVLLAPGVHNIIAIADGYQQQHSQVFVHHDAASSVVIVFDTDNRIFGLPRELVVTVSGATMSALILTACIIWCICSIKSNRHKDGFHRLRQHHDEYEDEIRMMSTGSKKSLLSHEFQDETDTEEETLYSSKH
B8: DSG1_HUMAN (protein, UniProt Q02413 50-1049, looked up)
Desmoglein-1: EWIKFAAACREGEDNSKRNPIAKIHSDCAANQQVTYRISGVGIDQPPYGIFVINQKTGEINITSIVDREVTPFFIIYCRALNSMGQDLERPLELRVRVLDINDNPPVFSMATFAGQIEENSNANTLVMILNATDADEPNNLNSKIAFKIIRQEPSDSPMFIINRNTGEIRTMNNFLDREQYGQYALAVRGSDRDGGADGMSAECECNIKILDVNDNIPYMEQSSYTIEIQENTLNSNLLEIRVIDLDEEFSANWMAVIFFISGNEGNWFEIEMNERTNVGILKVVKPLDYEAMQSLQLSIGVRNKAEFHHSIMSQYKLKASAISVTVLNVIEGPVFRPGSKTYVVTGNMGSNDKVGDFVATDLDTGRPSTTVRYVMGNNPADLLAVDSRTGKLTLKNKVTKEQYNMLGGKYQGTILSIDDNLQRTCTGTININIQSFGNDDRTNTEPNTKITTNTGRQESTSSTNYDTSTTSTDSSQVYSSEPGNGAKDLLSDNVHFGPAGIGLLIMGFLVLGLVPFLMICCDCGGAPRSAAGFEPVPECSDGAIHSWAVEGPQPEPRDITTVIPQIPPDNANIIECIDNSGVYTNEYGGREMQDLGGGERMTGFELTEGVKTSGMPEICQEYSGTLRRNSMRECREGGLNMNFMESYFCQKAYAYADEDEGRPSNDCLLIYDIEGVGSPAGSVGCCSFIGEDLDDSFLDTLGPKFKKLADISLGKESYPDLDPSWPPQSTEPVCLPQETEPVVSGHPPISPHFGTTTVISESTYPSGPGVLHPKPILDPLGYGNVTVTESYTTSDTLKPSVHVHDNRPASNVVVTERVVGPISGADLHGMLEMPDLRDGSNVIVTERVIAPSSSLPTSLTIHHPRESSNVVVTERVIQPTSGMIGSLSMHPELANAHNVIVTERVVSGAGVTGISGTTGISGGIGSSGLVGTSMGAGSGALSGAGISGGGIGLSSLGGTASIGHMRSSSDHHFNQTIGSASPSTARSRITKYSTVQYSK

This assay relates to KDM4A-I71AzF. Description: CASI: photo-crosslinking with HEK293T cell extracts, StrepTactin enrichment and LC-MS/MS proteomics.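 Note: lysates from HEK293T cells pretreated with a KDM4 inhibitor to raise proteome methylation, affinity-purified after ±UV, gel-resolved, trypsin-digested, with exclusive unique peptides per protein averaged per condition.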 It is filed as binding, human. Conditions: sheet "Final results but with 0.01".
With B1, the “Fold change (+UV/-UV)” value is listed as 0.6923.

For B2, the “Fold change (+UV/-UV)” value was found to be 0.5.

With B3, the “Fold change (+UV/-UV)” value came out at 0.8333. In the case of B4 it was 1.333. The result for B5 reads 1; that for B6, 0.6667; that for B7, 1. In the case of B8 it was 2.
